{"source": "patent US20250170268A1", "about": "(Merck KGaA, published 2025)", "target": "T1, Human CEACAM5 protein (human, UniProt P06731 35-702)", "T1 sequence": "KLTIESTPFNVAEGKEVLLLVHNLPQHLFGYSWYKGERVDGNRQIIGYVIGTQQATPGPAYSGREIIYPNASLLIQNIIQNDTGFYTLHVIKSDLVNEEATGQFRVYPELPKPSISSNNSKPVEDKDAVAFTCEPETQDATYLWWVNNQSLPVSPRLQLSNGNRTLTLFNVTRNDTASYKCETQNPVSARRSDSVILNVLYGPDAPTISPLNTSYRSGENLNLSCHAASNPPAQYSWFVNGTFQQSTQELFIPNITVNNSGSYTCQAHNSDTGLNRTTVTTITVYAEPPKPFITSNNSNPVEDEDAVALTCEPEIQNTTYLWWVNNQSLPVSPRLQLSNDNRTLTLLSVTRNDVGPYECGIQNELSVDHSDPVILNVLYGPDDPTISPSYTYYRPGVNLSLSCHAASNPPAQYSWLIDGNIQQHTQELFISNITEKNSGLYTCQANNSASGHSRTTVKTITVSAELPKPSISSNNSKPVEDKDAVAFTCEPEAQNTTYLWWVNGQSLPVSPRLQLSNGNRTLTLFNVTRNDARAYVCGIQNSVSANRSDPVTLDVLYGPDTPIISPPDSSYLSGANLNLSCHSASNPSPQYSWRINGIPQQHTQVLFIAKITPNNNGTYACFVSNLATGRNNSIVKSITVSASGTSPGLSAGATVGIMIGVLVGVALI", "assay": "cell-based or functional assay"}
{"binder": "ADC8 (an analog of labetuzumab govitecan) (antibody, human IgG1, kappa, purchased drug-linker on reduced interchain cysteines; purchased drug-linker on reduced interchain cysteines, DAR of 7.7 for the whole antibody) heavy: not shown light: DIQLTQSPSSLSASVGDRVTITCKASQDVGTSVAWYQQKPGKAPKLLIYWTSTRHTGVPSRFSGSGSGTDFTFTISSLQPEDIATYYCQQYSLYRSFGQGTKVEIKRTVAAPSVFIFPPSDEQLKSGTASVVCLLNNFYPREAKVQWKVDNALQSGNSQESVTEQDSKDSTYSLSSTLTLSKADYEKHKVYACEVTHQGLSSPVTKSFNRGEC", "values": [{"measurement": "SPECIFICITY FACTOR (IC50 in MDA-MB-231 divided by IC50 in MKN-45)", "value": 2.5, "unit": "fold"}, {"measurement": "SPECIFICITY FACTOR (IC50 in MDA-MB-231 divided by IC50 in SK-CO-1)", "value": 4.8, "unit": "fold"}, {"measurement": "SPECIFICITY FACTOR (IC50 in MDA-MB-231 divided by IC50 in SNU-16)", "value": 1.8, "unit": "fold"}]}
